Reference: patent US20200199647A1 (published 2020)
Like-named read-outs stand apart in the source and are kept apart here.

What was measured:
[1] = target: T1, PP1c (human PP1cα amino acids 7-330, N-terminal Thio6/His6 tag) (human, UniProt P62136 7-330); experiment: thermophoresis
[2] = target: T1, PP1c (human PP1cα amino acids 7-330, …); experiment: thermophoresis; remark: listed apart in the source

T1 sequence (P62136 other isoform, or with tags, fused parts or gaps): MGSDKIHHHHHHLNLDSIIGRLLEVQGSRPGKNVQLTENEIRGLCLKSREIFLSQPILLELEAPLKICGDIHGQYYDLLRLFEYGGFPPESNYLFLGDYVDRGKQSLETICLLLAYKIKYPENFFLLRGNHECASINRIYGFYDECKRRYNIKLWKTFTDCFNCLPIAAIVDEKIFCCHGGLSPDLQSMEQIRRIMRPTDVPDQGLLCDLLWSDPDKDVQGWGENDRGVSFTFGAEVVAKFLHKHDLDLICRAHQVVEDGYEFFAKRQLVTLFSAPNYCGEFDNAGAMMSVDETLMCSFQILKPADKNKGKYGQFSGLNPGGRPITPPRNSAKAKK

Binder	Kd [1] [nM]	Kd [2] [nM]
R15B^C (human PPP1R15B amino acids 636-698, N-terminal MBP-tag, C-terminal His6-tag) (other) VKRKKVTFLEEVTEYYISGDEDRKGPWEEFARDGCRFQKRIQETEDAIGYCLTFEHRERMFNRHHHHHH	960	–
R15B (human PPP1R15B amino acids 340-698, N-terminal MBP-tag, C-terminal His6-tag) (other) RDNPTQFVPAAGDIPGNTQESTEEKIELLTTEVPLALEEESPSEGCPSSEIPMEKEPGEGRISVVDYSYLEGDLPISARPACSNKLIDYILGGASSDLETSSDPEGEDWDEEAEDDGFDSDSSLSDSDLEQDPEGLHLWNSFCSVDPYNPQNFTATIQTAARIVPEEPSDSEKDLSGKSDLENSSQSGSLPETPEHSSGEEDDWESSADEAESLKLWNSFCNSDDPYNPLNFKAPFQTSGENEKGCRDSKTPSESIVAISECHTLLSCKVQLLGSQESECPDSVQRDVLSGGRHTHVKRKKVTFLEEVTEYYISGDEDRKGPWEEFARDGCRFQKRIQETEDAIGYCLTFEHRERMFNRHHHHHH	–	900
